Data set [1] deals with T1, hnRNP A1 RRM2 (UniProt P09651 95-196). Put plainly: NMR titration; fast exchange; ITC: 10 mM NaPi pH 6.5, 10 mM 2-mercaptoethanol, 30 C, protein titrated into RNA; NMR: 10 mM NaPi pH 6.5, 1 mM DTT (303 K stated for UP1-R140A:ISS-N1-u25g). Conditions: protein: recombinant; single strand.
Data set [2] has as its target T2, hnRNP A1 RRM1 (UniProt P09651 2-97). Described as above. Conditions: protein: recombinant; single strand.
For data set [3], the target named is T2, hnRNP A1 RRM1. Put plainly: NMR titration; intermediate exchange; ITC: 10 mM NaPi pH 6.5, 10 mM 2-mercaptoethanol, 30 C, protein titrated into RNA; NMR: 10 mM NaPi pH 6.5, 1 mM DTT (303 K stated for UP1-R140A:ISS-N1-u25g). Conditions: protein: recombinant; single strand.
The next data set has as its target UP1 r1R2 (UniProt P09651 1-196, F17A;F59A). Put plainly: ITC; ITC: 10 mM NaPi pH 6.5, 10 mM 2-mercaptoethanol, 30 C, protein titrated into RNA; NMR: 10 mM NaPi pH 6.5, 1 mM DTT (303 K stated for UP1-R140A:ISS-N1-u25g). Conditions: protein: recombinant; single strand. (In general: In ITC the heat of successive injections is recorded.)
The target of the next data set is hnRNP A1 RRM2 E176Q (UniProt P09651 95-196, E176Q). The description is as above. Conditions: protein: recombinant; single strand.
For data set [4], the target named is T1, hnRNP A1 RRM2. The data set is described as above. Conditions: protein: recombinant; single strand.
The target of data set [5] is hnRNP A1 UP1 R1r2 (Homo sapiens, UniProt P09651 2-196, F108A;F150A). Put plainly: ITC; 10 mM sodium phosphate pH 6.5, 10 mM 2-mercaptoethanol, no added salt, 30 C; RNA 5-10 uM in the cell; 1:1 fit. Conditions: extra N-terminal Gly-Gly in PDB 2LYV (left out).
In data set [6] the target is hnRNP A1 UP1 r1R2 (Homo sapiens, UniProt P09651 2-196, F17A;F59A). The description is as above. Conditions: extra N-terminal Gly-Gly in PDB 2LYV (left out).
Data set [7] deals with T3, hnRNP A1 RRM2 R140A (UniProt P09651 95-196, R140A). The data set is described as above. Conditions: none in PDB 5MPL.
Data set [8] concerns the target T2, hnRNP A1 RRM1. The description is as above. Conditions: one extra N-terminal Ala in PDB 5MPG (left out).
In data set [9] the target is T3, hnRNP A1 RRM2 R140A. Put plainly: ITC; range, no saturation; ITC: 10 mM NaPi pH 6.5, 10 mM 2-mercaptoethanol, 30 C, protein titrated into RNA; NMR: 10 mM NaPi pH 6.5, 1 mM DTT (303 K stated for UP1-R140A:ISS-N1-u25g). Conditions: protein: recombinant; single strand.
Data set [10] deals with T2, hnRNP A1 RRM1. The description is as above. Conditions: protein: recombinant; single strand.
In data set [11] the target is T4, UP1 R140A (UniProt P09651 1-196, R140A). Put plainly: NMR titration; 1 equivalent RNA; ITC: 10 mM NaPi pH 6.5, 10 mM 2-mercaptoethanol, 30 C, protein titrated into RNA; NMR: 10 mM NaPi pH 6.5, 1 mM DTT (303 K stated for UP1-R140A:ISS-N1-u25g). Conditions: protein: recombinant; single strand.
Data set [12] concerns the target T5, UP1 (UniProt P09651 1-196). Put plainly: NMR PRE; 1:1 complex; ITC: 10 mM NaPi pH 6.5, 10 mM 2-mercaptoethanol, 30 C, protein titrated into RNA; NMR: 10 mM NaPi pH 6.5, 1 mM DTT (303 K stated for UP1-R140A:ISS-N1-u25g). Conditions: protein: recombinant; label: IA-proxyl spin label on s4U18; single strand.
In data set [13] the target is T4, UP1 R140A. The description is as above. Conditions: protein: recombinant; label: IA-proxyl spin label on s4U18; single strand.
In data set [14] the target is T5, UP1. Put plainly: NMR titration; intermediate exchange, both RRMs; ITC: 10 mM NaPi pH 6.5, 10 mM 2-mercaptoethanol, 30 C, protein titrated into RNA; NMR: 10 mM NaPi pH 6.5, 1 mM DTT (303 K stated for UP1-R140A:ISS-N1-u25g). Conditions: protein: recombinant; single strand.
The target of data set [15] is T5, UP1. Put plainly: NMR titration; broad lines; ITC: 10 mM NaPi pH 6.5, 10 mM 2-mercaptoethanol, 30 C, protein titrated into RNA; NMR: 10 mM NaPi pH 6.5, 1 mM DTT (303 K stated for UP1-R140A:ISS-N1-u25g). Conditions: protein: recombinant; single strand.
The next data set addresses hnRNP A1 RRM2 Y167F (UniProt P09651 95-196, Y167F). Put plainly: ITC; ITC: 10 mM NaPi pH 6.5, 10 mM 2-mercaptoethanol, 30 C, protein titrated into RNA; NMR: 10 mM NaPi pH 6.5, 1 mM DTT (303 K stated for UP1-R140A:ISS-N1-u25g). Conditions: protein: recombinant; single strand.
The target in another data set is hnRNP A1 RRM2 M186A (UniProt P09651 95-196, M186A). Put plainly: ITC; 10 mM sodium phosphate pH 6.5, 10 mM 2-mercaptoethanol, no added salt, 30 C; RNA 5-10 uM in the cell; 1:1 fit. Conditions: none in PDB 5MPL.
For another data set, the target named is hnRNP A1 RRM1 F23A (UniProt P09651 2-97, F23A). Put plainly: ITC; ITC: 10 mM NaPi pH 6.5, 10 mM 2-mercaptoethanol, 30 C, protein titrated into RNA; NMR: 10 mM NaPi pH 6.5, 1 mM DTT (303 K stated for UP1-R140A:ISS-N1-u25g). Conditions: protein: recombinant; single strand.
Data set [16] has as its target T2, hnRNP A1 RRM1. Described as above. Conditions: protein: recombinant; single strand.
In data set [17] the target is T4, UP1 R140A. Put plainly: NMR (intermolecular NOEs, structural model); 1:1 complex; RRM2 on 5' motif, RRM1 on 3' motif; ITC: 10 mM NaPi pH 6.5, 10 mM 2-mercaptoethanol, 30 C, protein titrated into RNA; NMR: 10 mM NaPi pH 6.5, 1 mM DTT (303 K stated for UP1-R140A:ISS-N1-u25g). Conditions: protein: recombinant; single strand.
Data set [18] concerns the target T3, hnRNP A1 RRM2 R140A. Put plainly: ITC; ITC: 10 mM NaPi pH 6.5, 10 mM 2-mercaptoethanol, 30 C, protein titrated into RNA; NMR: 10 mM NaPi pH 6.5, 1 mM DTT (303 K stated for UP1-R140A:ISS-N1-u25g). Conditions: protein: recombinant; single strand.

The Kd is the equilibrium constant for the complex coming apart.

Sequence of hnRNP A1 UP1 r1R2 (P09651 2-196 F17A/F59A): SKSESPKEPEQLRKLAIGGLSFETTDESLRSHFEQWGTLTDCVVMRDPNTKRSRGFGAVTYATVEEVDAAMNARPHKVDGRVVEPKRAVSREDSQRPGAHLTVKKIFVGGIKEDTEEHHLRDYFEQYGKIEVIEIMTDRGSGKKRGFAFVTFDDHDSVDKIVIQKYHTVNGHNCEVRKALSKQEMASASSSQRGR
T4 sequence (P09651 1-196 R140A): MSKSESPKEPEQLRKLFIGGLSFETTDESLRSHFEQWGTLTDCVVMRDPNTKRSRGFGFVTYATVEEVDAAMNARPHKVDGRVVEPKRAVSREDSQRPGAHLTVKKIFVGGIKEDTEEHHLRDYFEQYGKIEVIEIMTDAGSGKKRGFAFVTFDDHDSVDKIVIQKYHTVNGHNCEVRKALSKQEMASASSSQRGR
T1 sequence (P09651 95-196): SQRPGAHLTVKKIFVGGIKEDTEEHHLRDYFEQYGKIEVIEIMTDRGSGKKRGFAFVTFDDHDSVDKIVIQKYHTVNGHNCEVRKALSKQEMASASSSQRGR
T3 sequence (P09651 95-196 R140A): as the sequence (P09651 95-196) above, with R46A counted along it
T2 sequence (P09651 2-97): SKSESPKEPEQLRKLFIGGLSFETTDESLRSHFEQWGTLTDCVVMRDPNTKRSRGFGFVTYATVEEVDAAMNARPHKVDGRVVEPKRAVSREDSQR
Sequence of hnRNP A1 RRM2 E176Q (P09651 95-196 E176Q): as the sequence (P09651 95-196) above, with E82Q counted along it
Sequence of UP1 r1R2 (P09651 1-196 F17A/F59A): as the sequence (P09651 1-196 R140A) above, with F17A, F59A, A140R counted along it
T5 sequence (P09651 1-196): as the sequence (P09651 1-196 R140A) above, with A140R counted along it
Sequence of hnRNP A1 UP1 R1r2 (P09651 2-196 F108A/F150A): as the sequence (P09651 2-196 F17A/F59A) above, with A16F, A58F, F107A, F149A counted along it
Sequence of hnRNP A1 RRM1 F23A (P09651 2-97 F23A): as the sequence (P09651 2-97) above, with F22A counted along it
Sequence of hnRNP A1 RRM2 M186A (P09651 95-196 M186A): as the sequence (P09651 95-196) above, with M92A counted along it
Sequence of hnRNP A1 RRM2 Y167F (P09651 95-196 Y167F): as the sequence (P09651 95-196) above, with Y73F counted along it

B1: CAGCAU (ssRNA)
RNA: CAGCAU
As for B1, the binding result with hnRNP A1 RRM2 [1] and in the data set with hnRNP A1 RRM1 [2] was “binds” throughout.

B2: CGUAGGU (ssRNA)
RNA: CGUAGGU
Turning to B2, the binding result with hnRNP A1 RRM1 [3] is “binds”.

B3: UAAGUU (ssRNA)
RNA: UAAGUU
For the molecule B3, the Kd was 685 ± 42 nM in the data set with UP1 r1R2; 429 ± 27 nM in the data set with hnRNP A1 RRM2 E176Q; 543 ± 31 nM in the data set with hnRNP A1 RRM2 [4]; 658 ± 44 nM with hnRNP A1 UP1 R1r2 [5]; 685 ± 42 nM with hnRNP A1 UP1 r1R2 [6]; about 3300 nM with hnRNP A1 RRM2 R140A [7]. Also, the values for the Kd with hnRNP A1 RRM1 [8], in the data set with hnRNP A1 RRM2 R140A [9] and in the data set with hnRNP A1 RRM1 [10] were about 4610 nM, about 2240 nM and about 5200 nM, respectively.

B4: ISS-N1-c14g (ssRNA)
RNA: GGACCAGGAUUAUGAAAGUGC
Regarding B4, in the data set with UP1 R140A [11], the binding result is on record as “binds”.

B5: UGAAAGU (ssRNA)
RNA: UGAAAGU
Take B5: the binding result in the data set with hnRNP A1 RRM2 [1] and with hnRNP A1 RRM1 [2] was “binds” throughout.

B6: modified ISS-N1 (spin-labeled) (XNA)
RNA: ACCAGCAUUAUGAAAGGUA
modifications: 4-thio-U at position 18
B6: the binding result with UP1 [12] and with UP1 R140A [13] was “binds” throughout.

B7: ISS-N1 WT (ssRNA)
RNA: GGACCAGCAUUAUGAAAGUGA
B7: the binding result with UP1 [14] and with UP1 R140A [11] was “binds” each time.

B8: UUUUAGGU (ssRNA)
RNA: UUUUAGGU
On to B8, for which, in the data set with hnRNP A1 RRM1 [3], the binding result is “binds”.

B9: ISS-N1-14g25g (ssRNA)
RNA: GGACCAGGAUUAUGAAAGGGC
On to B9, for which the binding result with UP1 [15] and with UP1 R140A [11] was “binds” each time.

B10: UGAGUU (ssRNA)
RNA: UGAGUU
As for B10, the Kd with UP1 r1R2 was 625 ± 41 nM; with hnRNP A1 RRM2 E176Q, 324 ± 20 nM; with hnRNP A1 RRM2 [4], 546 ± 31 nM; with hnRNP A1 UP1 R1r2 [5] it was 654 ± 50 nM; with hnRNP A1 UP1 r1R2 [6] it was 625 ± 41 nM; with hnRNP A1 RRM2 R140A [7] it was about 2650 nM. Further, the Kd is about 3450 nM with hnRNP A1 RRM1 [8], about 2240 nM with hnRNP A1 RRM2 R140A [9] and about 5200 nM in the data set with hnRNP A1 RRM1 [10].

B11: UCAGUU (ssRNA)
RNA: UCAGUU
Take B11: the Kd with UP1 r1R2 came to 637 ± 39 nM; with hnRNP A1 RRM2 E176Q, 237 ± 15 nM; in the data set with hnRNP A1 RRM2 [4], 541 ± 33 nM; in the data set with hnRNP A1 RRM2 Y167F it was 513 ± 30 nM; with hnRNP A1 UP1 R1r2 [5], 578 ± 40 nM; with hnRNP A1 UP1 r1R2 [6], 637 ± 39 nM. In addition, the Kd is about 2490 nM with hnRNP A1 RRM2 R140A [7], over 10000 nM with hnRNP A1 RRM1 [8], 1630 nM with hnRNP A1 RRM2 M186A and about 2240 nM in the data set with hnRNP A1 RRM2 R140A [9].

B12: UUAGGGA (ssRNA)
RNA: UUAGGGA
For the molecule B12, the binding result with hnRNP A1 RRM2 [1] and in the data set with hnRNP A1 RRM1 [2] was “binds” throughout.

B13: UUUUAGGUC (ssRNA)
RNA: UUUUAGGUC
Consider B13, for which the dissociation constant (Kd) in the data set with hnRNP A1 RRM1 F23A stood at 130 ± 8 nM; with hnRNP A1 RRM1 [16], 159 ± 9 nM.

B14: ISS-N1-u25g (ssRNA)
RNA: GGACCAGCAUUAUGAAAGGGA
B14: the binding result with UP1 R140A [17] was “binds”.

B15: UAGGUC (ssRNA)
RNA: UAGGUC
As to B15, the Kd with hnRNP A1 RRM2 E176Q was 227 ± 14 nM; in the data set with hnRNP A1 RRM1 F23A it was 602 ± 34 nM; in the data set with hnRNP A1 RRM2 [4], 98 ± 8 nM; in the data set with hnRNP A1 RRM2 R140A [18], 685 ± 40 nM; with hnRNP A1 RRM1 [16], 625 ± 35 nM; in the data set with hnRNP A1 RRM2 R140A [7], 685 ± 40 nM.

B16: UCAGGUC (ssRNA)
RNA: UCAGGUC
In the case of B16, the Kd in the data set with UP1 r1R2 turned out to be 178 ± 11 nM; with hnRNP A1 RRM2 E176Q, 132 ± 29 nM; with hnRNP A1 RRM2 [4] it was 129 ± 11 nM; with hnRNP A1 RRM2 R140A [18], 862 ± 47 nM; in the data set with hnRNP A1 RRM1 [16], 543 ± 33 nM; with hnRNP A1 UP1 R1r2 [5], 171 ± 12 nM. Also, the Kd with hnRNP A1 UP1 r1R2 [6] came out at 178 ± 11 nM; with hnRNP A1 RRM2 R140A [7], 862 ± 47 nM.

B17: UCAGGG (ssRNA)
RNA: UCAGGG
Turning to B17, the binding result with hnRNP A1 RRM2 [1] is “binds”.

For the origin of these results see paper PMC5503513, “Tandem hnRNP A1 RNA recognition motifs act in concert to repress the splicing of survival motor neuron exon 7”.
